Results: the supplement of paper PMC11865577

How the values were obtained:
Assay in all cases: pull-down binding Z-score (relative to library population); higher = stronger binding
[1] = test system: G-clamp-N3 (biotin conjugate); details: RNA library: Library-1 (pre-miRNA loops + repeats)
Procedure, shortened: (§1)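 Biotin-conjugated small molecule (100 pmol) on streptavidin beads was incubated with 1 μg of heat-folded Cy5- or Cy3-end-labelled RNA library in phosphate/NaCl/KCl buffer at 25 °C for 60 min. Following three washes, RNA was eluted with hot SDS and hybridised at 55.5 °C for 20 h to a DNA barcode microarray. The binding value is a Z-score computed from the library mean and standard deviation, after subtraction of beads without compound and averaging of barcoded replicate probes with the highest and lowest excluded.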

[2] = test system: TO-3-N3 (biotin conjugate); details: RNA library: Library-2
Procedure, shortened: as §1

[3] = test system: TO-3-N3-2 (biotin conjugate); details: RNA library: Library-2
Procedure, shortened: as §1

[4] = test system: TO-N3 (biotin conjugate); details: RNA library: Library-2
Procedure, shortened: as §1

[5] = test system: TO-N3-2 (biotin conjugate); details: RNA library: Library-2
Procedure, shortened: as §1

Sequence	pull-down binding Z-score [1]	pull-down binding Z-score [2]	pull-down binding Z-score [3]	pull-down binding Z-score [4]	pull-down binding Z-score [5]
UUCUCGAGUCUAUGGCUCCGGCCGAGAG [hsa-mir-219a-1]	-0.199	0.197	0.358	0.342	1.1
GGGAGGUAUGAUAUCGUGGUUCCU [hsa-mir-3689e]	-0.485	0.555	0.567	0.8	1.03
UCACUGUGAACAGUCUCAGUCAGUGA [hsa-mir-183]	-0.0454	-0.81	-0.331	-0.919	-0.631
UGGAGGUGAUGGGGGCAGGGGAUGGGUCUCACCCUCCC [hsa-mir-5088]	0.537	3.33	2.93	3.11	2.59
GCUGCAGAUCUUUGUCUAAGCAGC [hsa-mir-4498]	-0.879	-0.346	-0.207	-0.555	-0.274
CCAAGGCUCUGGGGUCUCACCCUUGG [hsa-mir-6842]	0.754	0.484	-0.394	0.386	0.0499
GUGUCGCCCCACGAGGGGGACUGU [hsa-mir-4322]	-0.152	-0.00462	-0.362	0.327	0.483
UAUAGCUACAUCAGUUAUAACUAUAUCAGUUAAA [hsa-mir-5582]	-1.59	1.67	0.447	1.57	0.00457
GCCUCUCUGAGCAUGCAUUCCUGAGACUC [hsa-mir-5695]	-1.38	0.286	0.0721	0.481	0.547
UCAAACAAGUUUCCAAAUUGUUUGA [hsa-mir-488]	-0.178	0.554	-0.496	0.194	-1.02
AUGCCUGAGAAUAUAUGAAGGAGGCU [hsa-mir-204]	2.31	0.0552	0.374	0.525	0.965
GUGGAAUGCAAAGUCCCAC [hsa-mir-5698]	-0.39	-0.264	-0.36	-0.332	-0.551
ACAGCCAGUGCUCUCGUCUCCCCUCUGGCUGC [hsa-mir-192]	0.589	0.839	0.236	0.925	0.949
UCCUUUUCUCUACCUUGUAGAGAAGCA [hsa-mir-3609]	-0.207	0.0918	-0.379	0.281	-0.258
UCUAUCUGUAUUCUUACUGAAGGGA [hsa-mir-504]	0.763	-0.739	-0.42	-0.937	-0.728
CGGCGGCGGCGGCGGCGGCGGCGGCGGCGGCGGCGGCGGCGGCGGCGG [G4_r(CGG)16]	-0.145	8.23	9.63	6.82	5.03
UGCCUCUCGGGGU [hsa-mir-6073]	-0.532	0.000863	0.15	0.118	0.214
UCCAGACGGAGAUGCGA [hsa-mir-611]	-1.18	-0.353	-0.000716	0.192	0.858
ACCACUGUGAAGACAGUAAAAUGUACAGUGGU [hsa-mir-597]	0.0112	-0.324	-0.0901	-0.598	-1.1
AGUGUUGUUUUUUCCCCCGCCAAUAUU [hsa-mir-92b]	-0.606	-0.34	0.29	-0.16	0.0118
GGUUCUGGGGUGUAGACGCUGCUGGCCAGCC [hsa-mir-4707]	1.08	0.287	0.282	0.587	0.971
GAGACACUC [hsa-mir-6126]	-0.909	-0.431	-0.578	-0.502	-0.469
ACUUUUUUUUUUUUUUUUUUUAAUGUUAAAAGU [hsa-mir-5588]	0.463	-0.429	0.823	-0.82	-0.107
AAGCAGGGUCGGGCCUGGUU [hsa-mir-7641-2]	0.553	0.415	0.0218	0.442	0.499
CUGGCUGGUCCAGCCCCUCAGAAG [hsa-mir-6796]	-0.944	1.16	0.4	1.39	1.47
GAAGAAGAAGAAGAAGAAGAAGAAGAAGAAGAAGAAGAAGAAGAAGAA [r(GAA)16]	-1.35	1.7	3.35	3.53	3.94
UGCCAUUAAAAGUAAUGGCA [hsa-mir-548i-3_548i-2_548i-1]	1.22	0.489	-0.048	0.141	-0.409
AGCACUUUGUGUUUUGUGAAAGAAAGUGCU [hsa-mir-516b-2]	2.82	-0.647	-0.0767	-0.882	-0.576
GAGGCCUCUUGCCAUGGCCUCC [hsa-mir-7113]	-1.1	-0.486	-0.378	-0.406	0.766
